We go through one molecule from paper doi:10.1101/411223 (bioRxiv, 2018).

The data set “AUC” concerns the molecule itself. The data set is described as follows: AUC.
A further data set has as its target T1, Kap114p (Δ899-956) (S. cerevisiae, UniProt P53067 1-1004, Δ899-956).
T1 sequence (looked up): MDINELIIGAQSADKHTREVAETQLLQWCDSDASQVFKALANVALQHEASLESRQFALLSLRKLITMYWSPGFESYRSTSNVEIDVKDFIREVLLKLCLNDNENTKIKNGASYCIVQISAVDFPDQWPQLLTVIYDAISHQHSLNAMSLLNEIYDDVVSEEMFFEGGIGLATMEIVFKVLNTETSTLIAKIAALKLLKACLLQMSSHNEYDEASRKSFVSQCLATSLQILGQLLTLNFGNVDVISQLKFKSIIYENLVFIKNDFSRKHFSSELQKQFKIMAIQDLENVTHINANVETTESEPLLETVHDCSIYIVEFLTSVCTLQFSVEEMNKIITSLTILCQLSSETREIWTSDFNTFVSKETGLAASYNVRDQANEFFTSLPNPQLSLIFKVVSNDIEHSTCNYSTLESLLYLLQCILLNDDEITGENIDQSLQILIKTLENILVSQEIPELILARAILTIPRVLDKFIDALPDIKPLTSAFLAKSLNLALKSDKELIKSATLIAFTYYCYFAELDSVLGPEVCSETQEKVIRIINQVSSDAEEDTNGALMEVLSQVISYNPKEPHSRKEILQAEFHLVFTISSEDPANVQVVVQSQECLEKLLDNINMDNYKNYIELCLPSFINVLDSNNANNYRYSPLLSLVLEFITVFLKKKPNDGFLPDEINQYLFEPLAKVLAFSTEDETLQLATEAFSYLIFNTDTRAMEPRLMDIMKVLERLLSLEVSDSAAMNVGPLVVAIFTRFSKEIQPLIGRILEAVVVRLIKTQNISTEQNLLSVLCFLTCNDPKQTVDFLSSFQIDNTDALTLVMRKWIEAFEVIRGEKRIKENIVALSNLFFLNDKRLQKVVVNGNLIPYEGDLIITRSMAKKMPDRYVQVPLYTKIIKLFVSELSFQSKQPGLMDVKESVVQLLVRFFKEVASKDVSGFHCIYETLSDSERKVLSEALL
The data set is described as follows: ITC. On the technique in general: In ITC the heat of successive injections is recorded.

A further data set has as its target T2, Kap114p (S. cerevisiae, UniProt P53067 1-1004).
T2 sequence (looked up): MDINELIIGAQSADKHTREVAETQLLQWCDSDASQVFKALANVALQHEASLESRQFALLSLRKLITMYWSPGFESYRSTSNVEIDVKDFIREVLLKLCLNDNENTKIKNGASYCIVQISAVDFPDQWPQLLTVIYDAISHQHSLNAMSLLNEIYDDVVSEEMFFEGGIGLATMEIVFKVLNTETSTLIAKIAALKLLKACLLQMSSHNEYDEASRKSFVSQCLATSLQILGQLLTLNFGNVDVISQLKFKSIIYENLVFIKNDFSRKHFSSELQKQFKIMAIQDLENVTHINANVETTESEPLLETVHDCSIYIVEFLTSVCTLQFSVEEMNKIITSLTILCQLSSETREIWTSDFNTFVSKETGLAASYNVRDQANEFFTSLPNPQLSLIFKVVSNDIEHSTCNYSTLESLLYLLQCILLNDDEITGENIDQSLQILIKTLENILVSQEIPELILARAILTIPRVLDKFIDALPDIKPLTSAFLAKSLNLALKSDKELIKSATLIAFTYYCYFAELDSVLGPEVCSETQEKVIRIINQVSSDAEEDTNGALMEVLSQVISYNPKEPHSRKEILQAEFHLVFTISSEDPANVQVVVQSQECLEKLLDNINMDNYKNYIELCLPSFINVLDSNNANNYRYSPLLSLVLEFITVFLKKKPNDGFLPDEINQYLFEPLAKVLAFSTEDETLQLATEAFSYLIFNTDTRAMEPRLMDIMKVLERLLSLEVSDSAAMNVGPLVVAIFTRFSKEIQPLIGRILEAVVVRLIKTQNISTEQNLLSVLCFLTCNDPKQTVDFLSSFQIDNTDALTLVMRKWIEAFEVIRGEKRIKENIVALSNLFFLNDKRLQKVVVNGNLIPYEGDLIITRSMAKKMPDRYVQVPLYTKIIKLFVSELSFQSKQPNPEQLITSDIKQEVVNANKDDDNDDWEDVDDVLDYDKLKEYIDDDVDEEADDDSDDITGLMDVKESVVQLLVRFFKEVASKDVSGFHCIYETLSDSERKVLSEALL
Briefly: ITC.

B1: yTBP (61-240) (domain or fragment, S. cerevisiae, UniProt P13393 61-240, looked up)
chain: SGIVPTLQNIVATVTLGCRLDLKTVALHARNAEYNPKRFAAVIMRIREPKTTALIFASGKMVVTGAKSEDDSKLASRKYARIIQKIGFAAKFTDFKIQNIVGSCDVKFPIRLEGLAFSHGTFSSYEPELFPGLIYRMVKPKIVLLIFVSGKIVLTGAKQREEIYQAFEAIYPVLSEFRKM
For the molecule B1, the stoichiometry N (in general, a count of units in the complex or per binding partner) in “AUC” was determined as 2. Moreover, in the data set with Kap114p (Δ899-956), the binding result is listed as “binds”. Besides, binding in the data set with Kap114p was put at a Kd of 6 nM.
